These results are taken from US20220002701A1.

The target in experiment [1] is stabilized soluble SARS-CoV-2 S ectodomain trimer in the pre-fusion conformation (SARS-CoV-2; bacteriophage T4) (UniProt P0DTC2).
Experiment [2] deals with SARS-CoV-2 S protein containing D614 with the C-terminal 19 residues of the cytoplasmic tail deleted, on MLV pseudovirus (SARS-CoV-2) (UniProt P0DTC2). The experiment in a line: cell-based or functional assay.

Sequence of ACE2615-LL-foldon (Q9BYF1 18-615, tags left off, one chain of several): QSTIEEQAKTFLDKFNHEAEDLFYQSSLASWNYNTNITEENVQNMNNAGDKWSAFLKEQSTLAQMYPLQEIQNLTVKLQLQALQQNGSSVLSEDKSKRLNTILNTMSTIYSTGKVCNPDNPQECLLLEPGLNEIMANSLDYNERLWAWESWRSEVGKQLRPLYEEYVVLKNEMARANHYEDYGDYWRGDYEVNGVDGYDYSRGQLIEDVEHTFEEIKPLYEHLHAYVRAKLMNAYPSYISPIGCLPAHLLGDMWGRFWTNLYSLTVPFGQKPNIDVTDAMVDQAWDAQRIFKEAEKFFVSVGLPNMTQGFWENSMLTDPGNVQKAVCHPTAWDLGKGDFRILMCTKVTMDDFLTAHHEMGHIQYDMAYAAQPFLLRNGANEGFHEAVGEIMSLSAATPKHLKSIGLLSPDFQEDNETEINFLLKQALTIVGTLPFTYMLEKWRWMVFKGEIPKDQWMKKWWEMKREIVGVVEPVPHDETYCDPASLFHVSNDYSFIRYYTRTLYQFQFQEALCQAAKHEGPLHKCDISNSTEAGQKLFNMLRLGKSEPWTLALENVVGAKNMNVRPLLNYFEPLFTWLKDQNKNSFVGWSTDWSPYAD

In experiment [1], “ACE2615-LL-foldon (from UniProt Q9BYF1 18-615; P10104 458-484) (receptor)” gave a Kd of 0.624 nM, a ka2 of 3.3, a kdis2 of 0.365 and a koff of 8.26e-05 s⁻¹. Besides, the association rate constant (kon) in experiment [1] was determined as 133000 M⁻¹ s⁻¹. In experiment [2], this substance gave an IC50, inhibition of MLV-based pseudovirus infection of ACE2-expressing cells of 0.6 µg/mL.

The Kd is a measure of binding affinity in units of concentration. A higher Kd goes with weaker binding. One may read the koff as a measure of how fast the partners let go of each other. For orientation: kon means a measure of how fast the partners come together. Higher therefore signals fast association.
